This is an account of results in patent publication US20240368282A1 (BIOSCEPTRE AUST, published 2024).

The target in one test is T1, CD70 (UniProt P32970 1-193, limits assumed).
T1 construct: whole, on cells
T1 sequence (looked up): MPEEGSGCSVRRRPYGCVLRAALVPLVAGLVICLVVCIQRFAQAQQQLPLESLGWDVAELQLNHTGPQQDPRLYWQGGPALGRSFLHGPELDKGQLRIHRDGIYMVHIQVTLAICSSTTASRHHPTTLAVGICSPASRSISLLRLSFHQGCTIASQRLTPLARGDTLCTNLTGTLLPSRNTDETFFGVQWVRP
The test can be described thus: flow cytometry, anti-HIS antibody. On the technique in general: Flow cytometry measures light scatter and fluorescence of single cells or particles in a stream.

Test [1] addresses T2, CD22 (UniProt P20273 20-847, limits assumed).
T2 construct: whole, on cells
Briefly: flow cytometry, anti-HIS antibody.

The target of a further test is T3, CD135 (UniProt P36888 27-993, limits assumed).
T3 construct: whole, on cells; also called FLT-3
Briefly: flow cytometry, anti-HIS antibody.

In a further test the target is T4, EGFR (UniProt P00533 25-1210).
T4 construct: whole, on cells
The test can be described thus: flow cytometry, anti-HIS antibody.

The target of test [2] is T5, dysfunctional P2X7 receptor (human, UniProt Q99572 1-595).
T5 construct: Endogenous on cancer cell lines (MOLM-13, JeKo-1); also called nfP2X7; nfP2X7 receptor
T5 sequence: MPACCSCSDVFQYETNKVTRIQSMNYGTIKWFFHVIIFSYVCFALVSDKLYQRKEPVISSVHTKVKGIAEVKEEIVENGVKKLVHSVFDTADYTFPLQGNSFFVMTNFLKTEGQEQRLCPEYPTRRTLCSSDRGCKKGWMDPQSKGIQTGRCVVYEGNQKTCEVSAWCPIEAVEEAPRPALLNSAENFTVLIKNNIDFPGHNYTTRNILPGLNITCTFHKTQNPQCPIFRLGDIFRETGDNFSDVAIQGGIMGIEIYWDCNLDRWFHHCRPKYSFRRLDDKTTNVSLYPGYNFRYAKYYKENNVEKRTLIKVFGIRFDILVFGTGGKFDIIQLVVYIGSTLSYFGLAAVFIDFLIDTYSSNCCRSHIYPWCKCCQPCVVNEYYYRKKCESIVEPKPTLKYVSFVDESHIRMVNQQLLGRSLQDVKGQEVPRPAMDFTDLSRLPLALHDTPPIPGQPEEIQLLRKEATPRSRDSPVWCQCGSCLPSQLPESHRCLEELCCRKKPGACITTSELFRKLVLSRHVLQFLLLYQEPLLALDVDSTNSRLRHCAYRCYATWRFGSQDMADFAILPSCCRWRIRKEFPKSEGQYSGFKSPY
Briefly: flow cytometry, anti-HIS-FITC, MOLM-13 cells. On the procedure: Indirect staining of artificial proteins on MOLM-13 cells via anti-HIS staining. […] Histogram overlay of HIS-FITC positivity on MOLM-13. […] HIS-ab was used according to manufacturer with 1 μl per test, target cells were incubated with 50 μl of supernatant from Lenti-X™ 293T cells for 10 min at room temperature. Supernatant harvested 48 h after transfection.

A further test addresses T6, BCMA (UniProt Q02223 1-184, limits assumed).
T6 construct: whole, on cells
T6 sequence (looked up): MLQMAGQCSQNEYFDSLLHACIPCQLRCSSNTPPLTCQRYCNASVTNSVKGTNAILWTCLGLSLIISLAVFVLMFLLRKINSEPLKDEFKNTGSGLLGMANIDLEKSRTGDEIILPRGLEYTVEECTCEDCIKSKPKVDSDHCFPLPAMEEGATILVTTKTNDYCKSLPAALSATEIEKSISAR
The test can be described thus: flow cytometry, anti-HIS antibody.

A further test concerns the target T7, CD123 (UniProt P26951 19-378, limits assumed).
T7 construct: whole, on cells; also called IL3RA
The test can be described thus: flow cytometry, anti-HIS antibody.

For test [3], the target named is T2, CD22. Briefly: flow cytometry (data not shown).

T7 sequence (P26951 19-378 limits assumed): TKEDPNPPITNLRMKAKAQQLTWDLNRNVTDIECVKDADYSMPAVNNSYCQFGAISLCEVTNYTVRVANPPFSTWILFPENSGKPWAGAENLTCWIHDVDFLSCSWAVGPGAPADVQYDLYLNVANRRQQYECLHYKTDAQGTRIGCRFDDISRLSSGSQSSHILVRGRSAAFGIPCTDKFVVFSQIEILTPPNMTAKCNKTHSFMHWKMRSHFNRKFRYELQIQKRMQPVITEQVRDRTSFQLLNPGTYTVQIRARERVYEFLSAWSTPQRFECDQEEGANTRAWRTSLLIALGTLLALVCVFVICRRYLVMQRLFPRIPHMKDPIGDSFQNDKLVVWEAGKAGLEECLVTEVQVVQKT

B1: CD70 bridging molecule derived from cusatuzumab (Fab, V domains shown)
VH: EVQLVESGGGLVQPGGSLRLSCAASGFTFSVYYMNWVRQAPGKGLEWVSDINNEGGTTYYADSVKGRFTISRDNSKNSLYLQMNSLRAEDTAVYYCARDAGYSNHVPIFDSWGQGTLVTVSS
VL: SQAVVTQEPSLTVSPGGTVTLTCGLKSGSVTSDNFPTWYQQTPGQAPRLLIYNTNTRHSGVPDRFSGSILGNKAALTITGAQADDEAEYFCALFISNPSVEFGGGTQLTVLK
notes: Fab with E200 at the N-terminus of the light chain, 6xHis on both chains; also called B028; CD70, Cusatuzumab, B028-1_LC / B028-2_HC
Consider B1, for which the binding result in the test with CD70 was “binds”.

B2: CD22 bridging molecule derived from m971-L7 (Fab, V domains shown)
VH: QVQLQQSGPGMVKPSQTLSLTCAISGDSVSSNSVAWNWIRQSPSRGLEWLGRTYYRSTWYNDYAVSMKSRITINPDTNKNQFSLQLNSVTPEDTAVYYCAREVTGDLEDAFDIWGQGTMVTVSS
VL: DIQMIQSPSSLSASVGDRVTITCRASQTIWSYLNWYRQRPGEAPNLLIYAASSLQSGVPSRFSGRGSGTDFTLTISSLQAEDFATYYCQQSYSIPQTFGQGTKLEIKR
notes: Fab with E200 at the N-terminus of the light chain, 6xHis on both chains; also called B023; CD22, m971-L7, B023-1 LC / B023-2_Heavy Chain
On to B2, for which the binding result in the test with CD22 [1] is “binds”.

B3: CD135 bridging molecule derived from 4G8 (Fab, V domains shown)
VH: QVQLQQPGAELVKPGASLKLSCKSSGYTFTSYWMHWVRQRPGHGLEWIGEIDPSDSYKDYNQKFKDKATLTVDRSSNTAYMHLSSLTSDDSAVYYCARAITTTPFDFWGQGTTLTVSS
VL: DIVLTQSPATLSVTPGDSVSLSCRASQSISNNLHWYQQKSHESPRLLIKYASQSISGIPSRFSGSGSGTDFTLSINSVETEDFGVYFCQQSNTWPYTFGGGTKLEIKR
notes: Fab with E200 at the N-terminus of the light chain, 6xHis on both chains; also called B041; CD135, clone 4G8, B041-1_LC / B041-2_HC
With B3, the binding result with CD135 was “binds”.

B4: EGFR bridging molecule derived from matuzumab (Fab, V domains shown)
VH: QVQLVQSGAEVKKPGASVKVSCKASGYTFTSHWMHWVRQAPGQGLEWIGEFNPSNGRTNYNEKFKSKATMTVDTSTNTAYMELSSLRSEDTAVYYCASRDYDYDGRYFDYWGQGTLVTVSS
VL: DIQMTQSPSSLSASVGDRVTITCSASSSVTYMYWYQQKPGKAPKLLIYDTSNLASGVPSRFSGSGSGTDYTFTISSLQPEDIATYYCQQWSSHIFTFGQGTKVEIKR
notes: also called B035; EGFR, Matuzumab, B035-1_LC / B035-2_HC
Turning to B4, in the test with EGFR, the binding result was “binds”.

B5: Orchestration molecule OR2-3 (nfP2X7), IgG1 format (antibody, V domains shown)
VH: EVQLLESGGGLVQPGGSLRLSCAASGFTFRNHDMGWVRQAPGKGLEWVSAISGSGGSTYYANSVKGRFTISRDNSKNTLYLQMNSLRAEDTAVYYCAEPKPMDTEFDYRSPGTLVTVSS
VL: DIQMTQSPSSLSASVGDRVTITCRASQYIYDYLNWYQQKPGKAPKLLIYAASYLQSGVPSRFSGSGSGTDFTLTISSLQPEDFATYYCQQYHHPSTFGQGTKVEIKR
notes: Tested as supernatant; also called OR2 paired to OR3
B5: the binding result in test [2] was “binds”.

B6: BCMA bridging molecule derived from clone CA8 J9M0 (Fab, V domains shown)
VH: QVQLVQSGAEVKKPGSSVKVSCKGSGYTFTNYWMHWVRQAPGQGLEWIGATYRGHSDTYYNQKFKGRATLTADTSTSTAYMELSSLRSEDTAVYYCTRGAIYDGYDVLDNWGQGTLVTVSS
VL: DIQMTQSPSSLSASVGDRVTITCSASQDISNYLNWYQQKPGKAPKLLIYYTSNLHSGVPSRFSGSGSGTDFTLTISSLQPEDFATYYCQQYRKLPWTFGQGTKLEIKR
notes: Fab with E200 at the N-terminus of the light chain, 6xHis on both chains; also called B039; BCMA, clone CA8 J9M0, B039-1_LC / B039-2_HC
Take B6: the binding result with BCMA is “binds”.

B7: CD123 bridging molecule derived from clone 32716 (Fab, V domains shown)
VH: QIQLVQSGPELKKPGETVKISCKASGYIFTNYGMNWVKQAPGKSFKWMGWINTYTGESTYSADFKGRFAFSLETSASTAYLHINDLKNEDTATYFCARSGGYDPMDYWGQGTSVTVSS
VL: DIVLTQSPASLAVSLGQRATISCRASESVDNYGNTFMHWYQQKPGQPPKLLIYRASNLESGIPARFSGSGSRTDFTLTINPVEADDVATYYCQQSNEDPPTFGAGTKLELKR
notes: Fab with E200 at the N-terminus of the light chain, 6xHis on both chains; also called B042; CD123, clone 32716, B042-1_LC / B042-2_HC
As for B7, the binding result with CD123 is recorded as “binds”.

B8: CD22 bridging molecule derived from inotuzumab (Fab, V domains shown)
VH: EVQLVQSGAEVKKPGASVKVSCKASGYRFTNYWIHWVRQAPGQGLEWIGGINPGNNYATYRRKFQGRVTMTADTSTSTVYMELSSLRSEDTAVYYCTREGYGNYGAWFAYWGQGTLVTVSS
VL: DVQVTQSPSSLSASVGDRVTITCRSSQSLANSYGNTFLSWYLHKPGKAPQLLIYGISNRFSGVPDRFSGSGSGTDFTLTISSLQPEDFATYYCLQGTHQPYTFGQGTKVEIKR
notes: also called B024; CD22, Inotuzumab, B024-1_LC / B024-2_HC
As to B8, the binding result in the test with CD22 [3] is given as “binds”.
